{"source": "paper PMC11091055", "about": "(2024)", "target": "SARS-CoV-2 prototype (PT) S NTD, human Fc-tagged (SARS-CoV-2)", "assay": "SPR"}
{"binder": "nanobody N235, His-tagged (VHH) VHH: QVQLQESGGGLVQPGGSLRLSCAASGLIISRYDMSWYRQAPGKERELVATTPIPAARPQYADSVKGRFTISRDNAKNTVSLQMNSLKPEDTAVYYCNLGPESQDHNYNYWGQGTQVTVSS", "values": [{"measurement": "koff", "value": 0.00024, "unit": "s⁻¹"}]}
